Reference: the supplement of paper PMC10567573

B1: TNXB (parent)
chain: LLQRELMVPGTRHSAVLRDLRSGT

Variants of: B1
Test: protein stability index of a GFP-peptide fusion (GPS, HEK-293T) (PSI 1-6); higher = more stable
Conditions: c terminus: a fixed tail appended
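Note: lentivirally expressed fusions sorted by FACS into six bins by GFP to DsRed ratio, PSI derived from sequencing read proportions per bin multiplied by bin number.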

Protein stability index, by site and new letter:
H13: M 2.25; Q 3; S 2.9; P 3.06; N 2.58; W 2.01; V 2.1; R 3.11; T 2.22; C 2.1; A 2.53; D 3.23; L 2.01; Y 2.15; K 2.09; F 1.59; G 2.31; I 1.91; E 2.82
P9: I 1.58; N 2.34; V 2.38; Q 2.1; K 2.21; F 1.79; C 2; W 1.68; T 2.03; H 2.23; Y 2.01; M 2.1; E 2.54; D 2.69; S 2.2; L 2.02; G 2.3; A 2.35; R 2.21
V8: S 3.11; L 2.35; C 2.12; D 2.91; A 2.42; M 2.15; T 2.36; N 2.59; Q 2.22; Y 2.32; E 2.62; K 2.46; P 2.21; R 2.12; W 2.34; I 1.99; F 2.28; G 2.27; H 2.36
R4: N 2.86; V 1.81; P 2.77; A 2.19; H 2.73; F 1.72; Y 2.37; L 2.76; K 2.46; S 2.42; W 1.49; M 2.37; G 2.43; E 2.65; D 3.44; C 2.49; Q 2.46; T 2.23; I 2.3
L1: W 1.61; Y 2.3; V 2.47; T 3.02; S 3.2; R 3.04
L6: C 2.59; W 2.52; V 2.89; S 3.1; M 2.49; T 3.53; P 3.15; E 2.7; R 2.59; N 2.9; Y 2.63; D 3.37; H 3.18; F 2.74; G 2.8; I 2.19; A 2.43; K 2.79; Q 2.69
G10: E 3.01; C 1.43; W 1.72; L 1.35; P 2.54; M 1.72; T 2.58; D 2.85; R 2.9; Y 1.09; F 2.33; H 2.19; A 2.39; Q 2.41; I 1.64; S 3.01; N 2.75; V 2.02; K 2
Q3: P 2.88; M 2.16; R 2.49; A 2.27; L 1.73; V 1.58; K 2.7; N 2.38; T 2.17; S 2.61; W 2.15; C 1.93; E 3.52; F 2.59; H 2.49; G 2.74; Y 1.72; D 3.4; I 1.72
E5: P 2.44; A 1.81; V 2.11; D 2.81; N 2.85; M 1.64; T 1.77; F 1.18; I 2.06; W 2.84; K 2.6; H 1.87; R 1.98; S 2.29; Y 2.38; Q 2.6; G 2.03; C 1.67
A15: H 2.41; L 2.14; E 2.92; K 2.82; S 2.27; C 1.72; T 2.18; P 2.35; N 3.19; I 2.26; G 2.34; F 1.98; M 2.43; Y 1.62; Q 1.97; V 1.95; W 3.49; D 2.29; R 3.4
T11: W 1.69; A 2.2; E 2.65; P 2.51; Y 1.94; V 2.24; G 3.21; H 2.68; F 2.3; K 2.32; S 2.5; D 2.81; C 1.56; M 2.2; N 2.43; L 2.32; Q 2.88; R 2.13; I 2.38
V16: Q 2.68; W 2.06; R 2.52; S 2.27; P 2.82; H 2.46; F 1.71; Y 3.05; K 2.48; E 2.72; I 2.11; D 3.19; M 2.15; L 2.33; C 2.02; N 3; T 2.7; A 3.05
R12: G 3.09; W 2.35; P 2.91; T 2.27; C 1.94; D 3.01; F 1.98; Q 2.42; S 2.06; K 2.28; Y 2.45; V 2.26; I 2.47; L 2.07; M 1.85; H 2.4; A 2.01; N 2.76; E 2.39
L2: D 3.23; Y 2.71; W 2.12; I 2.79; N 3.34; Q 3.54; F 2.15; T 3.29; H 3.43; K 3.33; P 3.71; R 3.92; A 3.36; M 2.28; G 3.42; E 3.95; C 2.13; S 3.4; V 2.48
D19: A 2.27; C 1.49; H 2.26; G 2.31; E 2.78; I 1.71; F 2.18
L17: D 2.62; I 2.81; T 2.73; E 3.47; W 2.38; H 2.28; Q 3.32; P 2.97; N 2.96; Y 2.45; M 3.05; V 2.85; S 3.16; K 3.75; G 2.84; C 2.54; A 2.55; R 3.46; F 2.23
R18: M 2.12; T 2.43; S 2.61; Y 2.07; P 2.75; F 2.02; L 1.94; G 2.44; C 2.42; K 2.39; W 1.8; V 2.51; A 2.68; I 2.21; E 3.33; N 2.71; Q 2.48; D 2.83; H 2.86
S14: F 2.32; K 2.67; I 1.75; Q 2.85; V 2.22; E 2.54; P 2.32; C 2.03; Y 2.71; A 2.2; H 2.26; T 2.45; L 1.61; W 2.11; D 2.66; N 2.88; M 2.23; G 2.63; R 2.45
M7: N 2.57; R 2.16; Y 3.15; D 3.17; Q 2.23; S 3.42; A 2.97; I 2.44; G 3.15; E 3.61; H 2.35; P 3.11; K 2.52; T 2.72; L 2.39; V 2.67; W 2.05; F 2.02; C 2.54
